Target: mVps29 (mouse (printed as mVps29), UniProt Q9QZ88 1-182)
Test: crystal structure; hanging drop, 20 °C; 0.1 M Tris-HCl pH 8.5, 0.2 M MgCl2, 30% PEG4000; 3-fold molar excess of peptide over mVps29
Conditions: both partners purified

- binding result: binds
B1: human DENND4C peptide 1189-1206 (peptide)
peptide: AKVVQREDVETGLDPLSL
notes: also called hDENND4C_(1189-1206); DENND4C PL motif-containing peptide; source: synthetic peptide
